From publication PMC2615091

Target: lamin B1 (mouse (endogenous in mouse embryonic fibroblasts)) (UniProt P14733)
Test: FRET or BRET

Sequence of UniProt P14733 (P14733 whole entry): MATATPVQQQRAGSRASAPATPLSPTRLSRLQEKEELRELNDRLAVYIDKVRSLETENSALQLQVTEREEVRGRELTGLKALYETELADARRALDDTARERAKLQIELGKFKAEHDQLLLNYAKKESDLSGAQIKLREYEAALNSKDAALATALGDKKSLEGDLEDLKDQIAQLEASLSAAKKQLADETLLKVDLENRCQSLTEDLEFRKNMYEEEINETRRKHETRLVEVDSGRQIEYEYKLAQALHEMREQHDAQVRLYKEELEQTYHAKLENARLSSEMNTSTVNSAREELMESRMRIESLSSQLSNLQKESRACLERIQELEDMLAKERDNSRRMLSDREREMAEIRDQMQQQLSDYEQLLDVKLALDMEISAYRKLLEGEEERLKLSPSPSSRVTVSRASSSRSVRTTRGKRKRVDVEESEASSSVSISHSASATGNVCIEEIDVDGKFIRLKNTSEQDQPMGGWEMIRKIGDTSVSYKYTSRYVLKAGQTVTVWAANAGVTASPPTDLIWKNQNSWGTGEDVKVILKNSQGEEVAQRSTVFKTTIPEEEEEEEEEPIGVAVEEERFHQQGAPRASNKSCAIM

FRET efficiency: 4.63%
Substance: Oct-1–EGFP (from UniProt P14859 1-743) (natural protein)
